Test results: the nanobody polyreactivity screen of Harvey et al. (2022)

Experiment: yeast display, Sf9 membrane polyspecificity reagent, FACS + sequencing; frameworks hold sequencing errors
In short: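 Nanobodies from a synthetic yeast display library (Saccharomyces cerevisiae BJ5465), induced 36–48 hours with galactose, were stained 1 hour at 4 °C with 10% biotinylated, detergent-solubilized Sf9 membrane reagent, enriched on streptavidin microbeads, then FACS-sorted. Anti-HA (expression) and streptavidin (reagent binding) fluorescence set low and high (top ~1%) gates. Polyreactivity labels come from the gate of origin. Genes were colony-PCR amplified, MiSeq 2 × 250 sequenced and filtered by CDR length.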

Sequence	polyreactivity (PSR sort gate)
QVQLVESGGGLVQAGGSLRLSCAASGITFYRYTMGWYRQAPGKERELVATITSGASTSYADSVKGRFTISRDNAKNTVYLQMNSLKPEDTAVYYCAARRTRVTGRYSVYAFDYWGQGTQVTVSS	low polyreactivity
QVQLVESGGGLVQAGGSLRLSCAASGSIFPHNAMGWYRQAPGKERVLVASITSRGGITYYADSVKGRFTISRDNAKNTVYLQMNSLKPEDTAVYYCAADLYIYPYDYWGQGTQVTVSS	low polyreactivity
QVQLEESGGGLVQAGGSLRLICAASGGIFRYYAMGWSRQAPGKERELVAAITQSGARTYYADSVKGRFTISRDNAKNTVYLQMNSMKPEDTAVYYCAADRTGSRYNSWGQGTQVTVSS	high polyreactivity
QVQLVESGGGLVQAGGSLRLSCAASGSIFDDNAMGWYRQAPGKERELVAAISANDGSTYYADSAKGRFTISRDNAKNTVYLQMNTLKPEDTAVYYCAAERYLSFDRYLYEYYYWGQGTQVTVSS	low polyreactivity
QVQLVESGGGLVQAGGSLRLSCAASGFTFSDNAMGWDRQAPGKERELVATISQSSGSTSYADSVKGRFTISRDYAKNTVYLQLNSLKPEDTAVYSCANRRLFYWGKGTQVTVSS	low polyreactivity
QVQLVESGGGLVQAGGSLRLSCAASGFTFYYYAMGWYRQAPGKERELVAAINRSGGSTYYADSVKGRFTISRDNAKNTVYLQMNSLKPEDTAVYYCNKRLLVSRSSAQPYGYWGQGTQVTVSS	high polyreactivity
QVHLVESGGGLVQAGGSLRLSCAASGSIFGGYAMGWSRQAPGKERELVAAISYRGASTYYADSVKGRFTISRDNAKNTVYLQMNSLKPEDTAVYYCNADDRGSTYVDFDYWGQGTQVTVSS	low polyreactivity
QVQLVESGGGLVQAGGSLRLSCAASGRTFGTNAMGWYRQAPGKERELVAAINQNGGSTYYADSVKGRFTISRDNAKNTVYLQMNSLKPEDTAVYYCAARSLDRYYHNANYYPYYYWGQGTQVTVSS	high polyreactivity
QVQLVESGGGLVQAGGSLRLSCAASGSTFLGNAMGWYSQAPGKERELVASISWSGGSTSYADSVKGRFTISRDIAKNTVYLLMNSLKPEDTAVYYCAVDWRYTGRTYYGMESWGQGTQVTVSS	low polyreactivity
QVQLVESGGGLVHAGGSLRLSCASSGRTFAYSAMGWYRQAPGIERELVATITSAGSTNYADSVKGRFTISRDNAKNTVYLQMNSLKPEDTAVYYCNRRVWGSSRLKYNYWGQGTQVTVSS	high polyreactivity
QVQLVESGGGLVQAGGSLRLSCAASVSTFPQYAMGWYRQAPGKERELVAAISWSGGRTYYADSVKGRFTISRDNAKNTVYLQMNSLKPEDTAVFYCAATYPGQYGYNYWGQGTQVTVSS	high polyreactivity
QVQLVESGGGLVQAGGSLRLSCAASGSIFVQNRMGWYRQAPGKERELVAAITFSGVDTYYADSVKGRFTISRDNAKNTVYLQMNSLKPEDTAVYYCAARVQHYLSTDDYWGQGTQVTVSS	low polyreactivity
QVHLVESGGGLVQAGGSLRLSCAASGIIFTWYAMGMYRQAPGKEREMVAAISGSGDITYYADSVKGRFTISRDNAKNTVYLQMNSLKPEDTAVYYCAADPWTYWEDYDYWGQGTQVTVSS	low polyreactivity
QVQLVESGGGLVQAGGSLRLSCAASGSIFPYYAMGWYRQAPGKERELVAAITWSGGGTYYADSVKGRFTISRDNAKNTGYLQMNSLKPEDTAVYYCAASYRYYWFDYWGQGTQVTVSS	high polyreactivity
QVQLVESGGGLVQAGGSLRLSCAASGRTFYIYAMGWYRQAPGKERELVAAITYGGGRTFYADSVKGRFTISRDNAKNTVYLQMNSLKPEDTAVYYCAASVRGKRSTYDYWGQGTQVTVSS	high polyreactivity
QVQLVESGGGLVQAGGSLRLSCAASGSTFVDNAMGWYRQAPGKEREMVAAIRYGSGGSTRYADSVKGRFTISRDNAKNTVYLQMNSLKPEDTAVYYCAADGYITVNYLRYDYWGQGTQVTVSS	low polyreactivity

Sequence	polyreactivity (PSR sort gate)
QVQLVESGGGLVQAGGSLRLSCAASGRIFRYYAMGWYRQAPGKERELVAAITQRGGSTYADSVKGRFTISRDNANNTVYLQMNSLKPEDTAVFYCAYRGSFLYDYWGQGTQVTVSS	low polyreactivity
QVQLVESGRRLVQAGGSLRLSCAASGINFDSYAMGWYRQAPGKERELVAAITSDSGRTYYADSVTGRFTISRDNAKNTVYLQMNSVKPEDTPVYYCAKRWDGPYDYWGQGTQVTVSS	low polyreactivity
QVQLVESGGGLVQAGGSLRLSCAASGRIFYYNTMGWYRQAPGKEREFVAAITGSGGITYYADSVKGRFTISRDNAKNTVYLQMNSLKPEDTAVYYCAARTRYSIYRYYYWGQGTQVTVSS	high polyreactivity
QVQLVESGGGLVQAGGSLRLSCAASGSIFYQYAMGWYRQAPGKEREFVAAITRRGTSTYYADSVKGRFTISRDIAKNTVYLQMNSLKPEDTAVYYCAARYGPNMDYWGQGTQVTVSS	high polyreactivity
QVQHVESGGGLVQAGGSLRLSCAASGYIFVRNAMGWYRQAPGKERELVAAISGSGGSTYYADSVKGRFTISRDNAKNTVYLQMNSLKPEDTAVYYCAADYATVTWRGIAYDYWGQGTQVTVSS	low polyreactivity
QVQLVESGRGLVQAGASLRLSCAASGSTFAQYARGSYRQAPWKESELVAAITRTGITNYADSVKGRFTISRDNAKNNVYLQMNSLKPEDTAVYYCAARRWRNGYGTGYGYWGLGTQVTVSS	high polyreactivity
QVQLVESGGGLVQAGGSLRLSCAASGSTFYRYAMGWYRQAPGKERELVAAITSAGSTNYADSVKGRFTISRDNGNNTVYLQMYSLKPVDTAVYYCAADHGRPYFSYDYWGQGSQVTVSS	low polyreactivity
QVQLVESGGGFVQAGGSLRLSCAASGIIVRANAMGWYRQAPGKERELVAAISSSGGSTFYADSVKGRFTISLDNAKNYVYLQMNSLNPEDTAVYYCAAGRTKFAWSEYEYWGQGTQVTVSS	low polyreactivity
QVQLVESVGGLVQAGGSLRLSCAASGRIFHRYTMGWYRQAPGKEREFVAAITTRAGSTYYADSVKGRFTISRDNAKNTVYLQMNSLKPEDTAVYYCNIRRHSLYGGTTTRYDYWGQGTQVTVSS	high polyreactivity
QVQLVESGGGLVQAGGSLRLSCAASGINFQRNDMGWYRQAPGKERELVANIRDGGITYADSVKGRFTISRDNAKNTVYLQMNSLKPEDTAVYYCARDDTSPGYGDQSSNAAYYYWGQGTQVTVSS	low polyreactivity
QVQLVESGGGLVQAGGSLRLSCAASGTYTNAMGWYRQAPGKERELVAAITSSGGSTYYADSVKGRFTISRDNAKNTVYLQMNSLKPEDTAVYYCAKPGVYEVSYTYGYWGQGTQVTVSS	low polyreactivity
QVQLVESGGGLVQAGGSLRLSCAASGSTFQQYAMGWYRQAPGKEREFVARISYGGGSTYYADSVKGRFTISRDNAKNTVYLQMNSLKPEDTAVYYCNAVRKGYYRWVFQNRYYYWGQGTQVTVSS	high polyreactivity
QVQLVESGGGSVQAGGRLRLRCAASGLIFYYYAMGWYRQAPGKERELVADIDRGGDTYYADSVKGRFTISRDNAKNNVYLQMNSLKPEDTEVYYCAAVDSYGYVPVFGYWGQGTQVTVSS	low polyreactivity
QVQLVESGVGLVQAGGSLRLSCAASGSIFVPNTMRWYRQAPGKERELVAAITGGGSTDYADSVKGRFTISRDNAKNTVYLQMNSLKPEDTAVYYCNKDYWRDVAQDVLDGYDYWGQGTQVTVSS	low polyreactivity
QVQLVESGGGLVQAGGSLRLTWAASGSTYESNAMGWYRPAPGKERELVAAISSSGGSTYYADSVKGRFTITRDNAKNTVYLQMNSLKPEDTAVYYGNKGGLSDYDYWGQGTQVTVSS	high polyreactivity
QVQLVKSGGGLVQAGGSLRLICAASGSIFGYNTMGWYRQAPGKERELVATITYRGGSTYYADSVKGRFTISRDNAKNTVYLQMNSLKPEDTAVYYCARRVTRYPYTTWVSAGDYWGQGTQVTVSS	high polyreactivity
